Data set [1] addresses T1, AB (HMGB1 without C-terminal tail) (human, UniProt P09429 1-166, C23S;C45S;C106S;S35C). Description: EMSA.
For data set [2], the target named is T2, FL HMGB1 (human, UniProt P09429 1-215, C23S;C45S;C106S;E204C). Nature of the data set: EMSA.
Target sequence in this assay (P09429 whole entry C23S/C45S/C106S/E204C): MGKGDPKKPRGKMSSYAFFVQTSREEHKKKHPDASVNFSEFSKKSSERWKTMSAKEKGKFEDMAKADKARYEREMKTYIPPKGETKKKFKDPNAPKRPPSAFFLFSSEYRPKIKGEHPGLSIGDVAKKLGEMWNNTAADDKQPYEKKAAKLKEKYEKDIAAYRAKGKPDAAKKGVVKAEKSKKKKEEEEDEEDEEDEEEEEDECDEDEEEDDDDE
The next data set concerns the target T3, A box (human, UniProt P09429 1-85, C23S;C45S;S35C).
T3 sequence: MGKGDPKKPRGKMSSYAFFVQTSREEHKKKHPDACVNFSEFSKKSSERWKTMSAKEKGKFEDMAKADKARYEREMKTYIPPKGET
Description: smFRET.

Another data set deals with B box (human, UniProt P09429 83-166, C106S;A137C). Nature of the data set: smFRET.
Chain of B box (P09429 83-166 C106S/A137C): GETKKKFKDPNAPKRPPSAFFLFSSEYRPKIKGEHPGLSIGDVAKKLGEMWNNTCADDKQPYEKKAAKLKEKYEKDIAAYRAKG
Data set [3] has as its target T2, FL HMGB1. Nature of the data set: smFRET.
Another data set addresses AB-F38A (human, UniProt P09429 1-166, C23S;F38A;C45S;C106S;S35C). Description: smFRET.
Data set [4] has as its target T1, AB (HMGB1 without C-terminal tail). Nature of the data set: smFRET.

B1: 18 bp dsDNA (EMSA) (dsDNA)
DNA 1: CAGGCTATAAAAGGGACG
DNA 2: CGTCCCTTTTATAGCCTG
Take B1: the figures for the Kd (in data set [1]; with FL HMGB1 [2]) were 5 nM and 10 nM, respectively.

B2: smFRET DNA (18 bp with 19 nt 3' overhang) (dsDNA)
DNA 1: CAGGCTATAAAAGGGACG
DNA 2: CGTCCCTTTTATAGCCTGATACAAGCAGCAGTCACCA
Turning to B2, the binding result (with A box; with B box; in the data set with FL HMGB1 [3]; with AB-F38A; in data set [4]) was “binds” each time.

These data come from PMC5642108.
